One assay has as its system C-terminal domain of μ3A. The conditions noted are these: previously shown; ref [18]; cited from earlier work. From the text:
(§1) This tyrosine-based signal is related to the YXXØ motif, which is the signal contained in the cytosolic tail of transmembrane proteins that binds to a different site on the μ2 subunit of AP-2 [28], or on the μ3A subunit of AP-3 [30]. In this study, we wanted to determine whether this putative second binding site on μ4, referred here as the μ2-binding site (Figure 1, A and B), played any role in the binding to the YKFFE signal of APP ...

Assay [1] deals with T1, recombinant μ4 C-terminal domain, wild-type (Homo sapiens, UniProt O00189).
T1 construct: recombinant C-terminal domain of human μ4 (residues 160-453); GST followed by TEV protease cleavage site (N, cleaved yes); made in house; host or cells: E. coli B834(DE3)pLysS
T1 sequence (O00189 160-453): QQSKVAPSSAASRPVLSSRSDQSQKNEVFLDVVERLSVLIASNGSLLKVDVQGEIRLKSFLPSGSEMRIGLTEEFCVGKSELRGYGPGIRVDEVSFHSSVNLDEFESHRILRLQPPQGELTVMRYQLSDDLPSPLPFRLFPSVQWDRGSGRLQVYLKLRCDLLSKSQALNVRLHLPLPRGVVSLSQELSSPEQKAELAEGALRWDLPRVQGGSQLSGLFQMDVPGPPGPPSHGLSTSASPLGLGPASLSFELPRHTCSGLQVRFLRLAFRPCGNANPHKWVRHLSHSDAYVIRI
Description: Isothermal titration calorimetry with wild-type μ4. The format is binding. The settings on record: canonical YXXØ signal peptides, 28°C, pH 7.4, stoichiometry and Kd N/D. In general terms: ITC needs no label: the signal is the heat of the interaction.
Description: Recombinant μ4 C-terminal variants were dialyzed overnight at 4°C against excess ITC buffer (50 mM Tris-HCl, pH 7.4, 150 mM NaCl), and an APP peptide ([sequence]), a CD63 peptide (SGYEVM), or a TGN38 peptide (SDYQRL; New England Peptide, Gardner, MA) were also prepared in ITC buffer. All ITC experiments were carried out at 28°C using an iTC200 instrument (GE Healthcare). […] Titration curves were analyzed using Origin software (MicroCal). The binding constant corresponding to each μ4 construct was calculated by fitting the curves to a one-site model.
Isothermal titration calorimetry of recombinant C-terminal domain of wild-type μ4 with the TGN38 SDYQRL peptide (C), or the CD63 SGYEVM peptide (D).

In assay [2] the test system is cytosolic tail of APP. The settings on record: mutations at μ4-binding site; previously identified; ref [18]; cited from earlier work.
From the text: as §1

A further assay relates to canonical YXXØ signals. The conditions noted are these: previous reports; ref [31]; cited from earlier work.
From the text: as §1

The test system of assay [3] is cytosolic tail of APP. Description: Yeast two-hybrid (Y2H) analysis of μ4 with the APP tail. The settings on record: mutations at μ2-binding site; growth on -His plates, 30°C. Type of assay: binding. The text has this:
The cloning of the tail of APP (residues 649–695), full-length human μ4, and all the other yeast two-hybrid (Y2H) constructs, and the cloning of the C-terminal domain of μ4 for expression in E. coli was described previously. To generate a construct for mammalian expression, full-length human μ4 was obtained by PCR amplification and cloned into the EcoRI and SalI sites of pEGFP-N1 (BD BiosciencesClontech, Mountain View, CA) including a stop-codon before the GFP coding sequence. The cloning of APP-GFP carrying the double mutation F615P/D664A was described previously. Single amino acid substitutions were introduced using the QuikChange mutagenesis kit (Stratagene, La Jolla, CA). Y2H assays were performed as previously described. A set of pCI-neo (Promega) constructs encoding hemagglutinin (HA)-epitope tagged wild-type or mutants of human μ4 was a generous gift of J. Bonifacino and R. Mattera (Cell Biology and Metabolism Program, NICHD, NIH). The nucleotide sequences of all recombinant constructs were confirmed by dideoxy sequencing.
Figure 1 Yeast two-hybrid analysis of the interaction of μ4 with the cytosolic tail of APP. (A) Superposition of the surface and ribbon representations of human wild-type μ4 C-terminal domain (pdb entry 3L81). The insets show an enlargement of the μ4-binding site and the putative μ2-binding site with residues chosen for the yeast two-hybrid (Y2H) analysis. The APP peptide (TYKFFEQ; stick model) bound to the μ4-binding site is in yellow, and the EGFR peptide (FYRALM; stick model; pdb entry 1BW8) superposed to the putative μ2-binding site is in magenta. (B) Sequence alignment of the C-terminal domain of the μ subunits of known crystal structure depicting critical residues at the corresponding μ2- and μ4-binding sites. Disordered loops are in yellow letters, and arrows and cylinders represent β-strands and α-helices, respectively. M.m., Mus musculus; R.n., Rattus norvegicus; H.s., Homo sapiens. (C) and (D) Yeast were co-transformed with plasmids encoding Gal4bd fused to the cytosolic tail of the amyloid precursor protein (APP) indicated on the left, and Gal4ad fused to wild-type or mutant μ4 constructs indicated on top of each panel. (C) Y2H analysis of μ4 with mutations on the YKFFE binding site (μ4-binding site). (D) Y2H analysis of μ4 with mutations on a putative YXXØ binding site (μ2-binding site). Mouse p53 fused to Gal4bd and SV40 large T antigen (T Ag) fused to Gal4ad were used as controls. Co-transformed cells were spotted onto His-deficient (-His) or His-containing (+His) plates and incubated at 30°C. Growth is indicative of interactions. Some mutations on either of the two sites affect the interaction of μ4 with the cytosolic tail of APP.

For assay [4], the target named is T2, recombinant C-terminal domain of human μ4-D190S (human, UniProt O00189 160-453, D190S).
T2 construct: also called D190S mutant; source: E. coli B834(DE3)pLysS, purified (glutathione-Sepharose 4B, TEV cleavage, Ni-NTA, Superdex 200); not shown: GST, N-terminal, cleaved
T2 sequence (looked up): T1 sequence (O00189 160-453) with D31S
In words: ITC; 28°C, 50 mM Tris-HCl pH 7.4, 150 mM NaCl; chamber 250–500 µM μ4 construct, peptide 2.5–5.0 mM in 16 injections; one-site model. The settings on record: both partners purified.

Numbering of substitutions follows the chain as printed. Names and notes keep the numbering of the source.

With “SDYQRL [TGN38 SDYQRL peptide, peptide bearing the canonical YXXØ signal of TGN38]”, the “binding to C-terminal domain of μ3A” value in the assay on C-terminal domain of μ3A was “bind well”. Also, the “interaction (ITC)” value in assay [1] is on record as “undetectable”.

“SGYEVM [CD63 SGYEVM peptide, peptide bearing the canonical YXXØ signal of CD63]”: the “binding to C-terminal domain of μ3A” value with C-terminal domain of μ3A was “bind well”. In addition, the “interaction (ITC)” value in assay [1] is listed as “undetectable”.

B1: H256A: μ4 mutant, μ4-binding site, reported previously (protein, UniProt O00189 1-453, looked up, variant H256A)
AP-4 complex subunit mu-1: MISQFFILSSKGDPLIYKDFRGDSGGRDVAELFYRKLTGLPGDESPVVMHHHGRHFIHIRHSGLYLVVTTSENVSPFSLLELLSRLATLLGDYCGSLGEGTISRNVALVYELLDEVLDYGYVQTTSTEMLRNFIQTEAVVSKPFSLFDLSSVGLFGAETQQSKVAPSSAASRPVLSSRSDQSQKNEVFLDVVERLSVLIASNGSLLKVDVQGEIRLKSFLPSGSEMRIGLTEEFCVGKSELRGYGPGIRVDEVSFASSVNLDEFESHRILRLQPPQGELTVMRYQLSDDLPSPLPFRLFPSVQWDRGSGRLQVYLKLRCDLLSKSQALNVRLHLPLPRGVVSLSQELSSPEQKAELAEGALRWDLPRVQGGSQLSGLFQMDVPGPPGPPSHGLSTSASPLGLGPASLSFELPRHTCSGLQVRFLRLAFRPCGNANPHKWVRHLSHSDAYVIRI
For B1, the “effect of mutation on binding to the APP YKFFE signal” value (from here on “effect of mutation on binding”) in the assay with cytosolic tail of APP [2] was “null effect”.

B2: S257A: μ4 mutant, μ4-binding site, reported previously (protein, UniProt O00189 1-453, looked up, variant S257A)
AP-4 complex subunit mu-1: B1 AP-4 complex subunit mu-1 with A256H, S257A
B2: in the assay on cytosolic tail of APP [2], the “effect of mutation on binding” value is recorded as “null effect”.

B3: D190A: μ4 mutant, μ2-binding site, Y2H construct (protein)
chain: B1 AP-4 complex subunit mu-1 with D190A, A256H
modifications: left off: Gal4 activation domain, end not stated, kept
Turning to B3, in the assay with canonical YXXØ signals, the “interaction of μ4 mutant with canonical YXXØ signals” value was “loss of these interactions”. In addition, the “effect of mutation on interaction of the APP tail with μ4 (Y2H)” value in the assay on cytosolic tail of APP [3] is reported as “abrogated”.

B4: R283A: μ4 mutant, μ4-binding site, reported previously (protein, UniProt O00189 1-453, looked up, variant R283A)
AP-4 complex subunit mu-1: B1 AP-4 complex subunit mu-1 with A256H, R283A
For B4, the “effect of mutation on binding” value with cytosolic tail of APP [2] is listed as “null effect”.

B5: F255A: μ4 mutant, μ4-binding site, Y2H construct (protein, UniProt O00189 1-453, looked up, variant F255A)
AP-4 complex subunit mu-1: B1 AP-4 complex subunit mu-1 with F255A, A256H
As for B5, the “effect of mutation on binding” value in the assay on cytosolic tail of APP [2] is “sensitivity”.

B6: L261S: μ4 mutant, μ4-binding site, Y2H construct (protein, UniProt O00189 1-453, looked up, variant L261S)
AP-4 complex subunit mu-1: B1 AP-4 complex subunit mu-1 with A256H, L261S
Take B6: the “effect of mutation on binding” value with cytosolic tail of APP [2] is listed as “sensitivity”.

B7: E265A: μ4 mutant, μ4-binding site, reported previously (protein, UniProt O00189 1-453, looked up, variant E265A)
AP-4 complex subunit mu-1: B1 AP-4 complex subunit mu-1 with A256H, E265A
Turning to B7, in the assay on cytosolic tail of APP [2], the “effect of mutation on binding” value is “null effect”.

B8: R283D: μ4 mutant, μ4-binding site, Y2H construct (protein, UniProt O00189 1-453, looked up, variant R283D)
AP-4 complex subunit mu-1: B1 AP-4 complex subunit mu-1 with A256H, R283D
Take B8: the “effect of mutation on binding” value with cytosolic tail of APP [2] is listed as “sensitivity”.

B9: APP peptide ENPTYKFFEQ (peptide)
peptide: ENPTYKFFEQ
notes: amyloid precursor protein (APP), stretch of the cytosolic tail with the YKFFE signal (Y687 to Q692 printed); numbers count on: APP695; also called APP sorting signal; source: synthetic peptide (New England Peptide)
Turning to B9, the binding result in assay [4] was “binds”.
